One block for each substance: values may come before it.
Tests used:
Tau (Homo sapiens) = Tau (Homo sapiens) (UniProt P10636); details: cited from earlier work
[1] = target: HSP90αM domain (solid phase assays of Figure 2B and 2C); assay: ELISA; solid phase protein–protein interaction assay, dose-dependent; HSP90M domain (100 µg/mL) coated on plate, FN 30, 45, 70 and 120 kDa fragments at varying concentrations in solution
[2] = target: glucocorticoid receptor LBD (Homo sapiens) (UniProt P04150); details: cited from earlier work
Chain of glucocorticoid receptor LBD (Homo sapiens) (P04150 523-777): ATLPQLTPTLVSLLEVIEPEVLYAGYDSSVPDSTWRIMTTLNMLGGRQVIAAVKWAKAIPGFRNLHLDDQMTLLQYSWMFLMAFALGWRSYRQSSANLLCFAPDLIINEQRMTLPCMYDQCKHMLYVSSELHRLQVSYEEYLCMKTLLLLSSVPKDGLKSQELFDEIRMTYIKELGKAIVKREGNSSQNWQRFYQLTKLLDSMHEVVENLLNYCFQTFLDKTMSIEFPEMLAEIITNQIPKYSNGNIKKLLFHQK

Chain of Tau (Homo sapiens) (P10636 2-758): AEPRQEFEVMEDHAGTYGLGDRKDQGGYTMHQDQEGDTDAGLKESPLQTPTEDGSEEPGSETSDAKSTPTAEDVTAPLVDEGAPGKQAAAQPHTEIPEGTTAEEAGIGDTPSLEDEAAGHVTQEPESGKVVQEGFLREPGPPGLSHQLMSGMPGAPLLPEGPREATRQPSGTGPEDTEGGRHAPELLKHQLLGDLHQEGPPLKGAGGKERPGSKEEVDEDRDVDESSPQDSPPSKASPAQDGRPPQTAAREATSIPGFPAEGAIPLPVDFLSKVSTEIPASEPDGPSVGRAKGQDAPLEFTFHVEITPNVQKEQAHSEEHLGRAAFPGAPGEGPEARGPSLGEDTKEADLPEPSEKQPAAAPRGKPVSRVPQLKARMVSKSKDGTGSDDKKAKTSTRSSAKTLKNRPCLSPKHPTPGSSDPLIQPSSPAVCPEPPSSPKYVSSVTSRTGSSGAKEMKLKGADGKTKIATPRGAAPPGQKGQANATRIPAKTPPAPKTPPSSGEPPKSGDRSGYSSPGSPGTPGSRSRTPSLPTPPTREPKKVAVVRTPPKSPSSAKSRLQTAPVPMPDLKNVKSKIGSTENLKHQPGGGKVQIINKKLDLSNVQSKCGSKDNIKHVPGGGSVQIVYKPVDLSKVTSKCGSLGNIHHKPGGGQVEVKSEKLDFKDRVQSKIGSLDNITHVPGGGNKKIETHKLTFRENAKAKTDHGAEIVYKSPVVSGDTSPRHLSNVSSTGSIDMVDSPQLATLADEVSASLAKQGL

Kd [1]: 70 nM
Substance: N-terminal FN 30-kDa heparin-binding fragment (FN30) (domain or fragment)

Kd of FN45 relative to that of FN30 (fold higher) [1]: 3 fold
Substance: 45-kDa gelatin-binding FN fragment (FN45) (domain or fragment)

The remaining lines, values behind:

Substance: HSP90 (from UniProt P07900)
Kd (Tau (Homo sapiens)): 4.8 µM

Substance: HSP90 (from UniProt P02829)
Kd [2]: 800 nM

Substance: 70-kDa N-terminal FN fragment (FN70) (domain or fragment)
Kd [1]: 500 nM

From article PMC7072298
